# Assay results published in the Immune Epitope Database (IEDB).
# Key:
# HLA-B*51:01 = test: IEDB peptide-MHC binding, purified MHC/competitive/radioactivity; filed as Kd, often an IC50 or EC50 that approximates it; ≥ and ≤ were set here for values at or beyond the usual limits of such assays
# HLA-B*35:01 = test: as above
# HLA-B*54:01 = test: as above
# HLA-B*53:01 = test: as above
# HLA-B*07:02 [1] = test: as above
# HLA-A*33:01 = test: as above
# HLA-A*03:01 = test: as above
# HLA-B*08:01 = test: as above; conditions: source organism: Hepatitis C virus (isolate 1)
# HLA-A*31:01 = test: as above
# HLA-B*44:03 = test: as above
# HLA-A*11:01 = test: as above
# HLA-A*68:01 = test: as above
# HLA-A*02:01 [2] = test: as above
# HLA-A*02:03 = test: as above
# HLA-B*44:02 = test: as above
# HLA-A*02:02 = test: as above
# HLA-B*40:02 = test: as above
# HLA-A*02:06 = test: as above
# HLA-B*40:01 = test: as above
# HLA-A*68:02 = test: as above
# HLA-B*18:01 = test: as above
# HLA-A*69:01 = test: IEDB peptide-MHC binding, purified MHC/direct/fluorescence; filed as Kd, often an IC50 or EC50 that approximates it; ≥ and ≤ were set here for values at or beyond the usual limits of such assays; conditions: source organism: SARS-CoV1
# HLA-A*02:01 [3] = test: as above; conditions: source organism: SARS-CoV1
# HLA-B*07:02 [4] = test: as above; conditions: source organism: SARS-CoV1
# HLA-B*45:01 = test: IEDB peptide-MHC binding, purified MHC/competitive/radioactivity; filed as Kd, often an IC50 or EC50 that approximates it; ≥ and ≤ were set here for values at or beyond the usual limits of such assays; conditions: source organism: SARS coronavirus Tor2
# [5] = source organism: Vaccinia virus WR
# [6] = source organism: SARS coronavirus Tor2
# [7] = source organism: Hepatitis C virus (isolate 1)
# [8] = source organism: Triticum aestivum
# [9] = source organism: Mammarenavirus guanaritoense
sequence,measurement,setting,value
APGSPTNLEF,Kd,HLA-B*51:01; [5],≥ 69600 nM
same,Kd,HLA-B*35:01; [5],850 nM
same,Kd,HLA-B*54:01; [5],≥ 39400 nM
same,Kd,HLA-B*53:01; [5],556 nM
same,Kd,HLA-B*07:02 [1]; [5],54.2 nM
APHGVVFLHV,Kd,HLA-B*51:01; [6],7810 nM
same,Kd,HLA-B*35:01; [6],4360 nM
same,Kd,HLA-B*54:01; [6],288 nM
same,Kd,HLA-B*53:01; [6],749 nM
same,Kd,HLA-B*07:02 [1]; [6],254 nM
ATDALMTGY,Kd,HLA-B*51:01; [7],≥ 77500 nM
same,Kd,HLA-A*33:01; [7],≥ 77700 nM
same,Kd,HLA-A*03:01; [7],3320 nM
same,Kd,HLA-B*08:01,≥ 64700 nM
same,Kd,HLA-B*35:01; [7],≥ 36400 nM
same,Kd,HLA-B*54:01; [7],≥ 63100 nM
same,Kd,HLA-A*31:01; [7],≥ 72300 nM
same,Kd,HLA-B*44:03; [7],≥ 78200 nM
same,Kd,HLA-A*11:01; [7],19.6 nM
same,Kd,HLA-A*68:01; [7],≥ 77700 nM
same,Kd,HLA-A*02:01 [2]; [7],1450 nM
same,Kd,HLA-A*02:03; [7],5920 nM
same,Kd,HLA-B*44:02; [7],≥ 78000 nM
same,Kd,HLA-A*02:02; [7],1580 nM
same,Kd,HLA-B*53:01; [7],≥ 78200 nM
same,Kd,HLA-B*07:02 [1]; [7],≥ 32900 nM
same,Kd,HLA-B*40:02; [7],≥ 77300 nM
same,Kd,HLA-A*02:06; [7],5650 nM
same,Kd,HLA-B*40:01; [7],≥ 76200 nM
same,Kd,HLA-A*68:02; [7],≥ 69800 nM
same,Kd,HLA-B*18:01; [7],≥ 77500 nM
EPISILDRI,Kd,HLA-B*51:01; [5],37.3 nM
same,Kd,HLA-B*35:01; [5],4810 nM
same,Kd,HLA-B*54:01; [5],820 nM
same,Kd,HLA-B*53:01; [5],194 nM
same,Kd,HLA-B*07:02 [1]; [5],≥ 28800 nM
FPGLYGASI,Kd,HLA-B*51:01; [5],137 nM
same,Kd,HLA-B*35:01; [5],506 nM
same,Kd,HLA-B*54:01; [5],18.4 nM
same,Kd,HLA-B*53:01; [5],9.2 nM
same,Kd,HLA-B*07:02 [1]; [5],80.9 nM
FPSTQRDYY,Kd,HLA-B*51:01; [5],≥ 77500 nM
same,Kd,HLA-B*35:01; [5],1.08 nM
same,Kd,HLA-B*54:01; [5],3940 nM
same,Kd,HLA-B*53:01; [5],1.15 nM
same,Kd,HLA-B*07:02 [1]; [5],≥ 77500 nM
IPKFKVTGSY,Kd,HLA-B*51:01; [5],≥ 69600 nM
same,Kd,HLA-B*35:01; [5],1230 nM
same,Kd,HLA-B*54:01; [5],≥ 58200 nM
same,Kd,HLA-B*53:01; [5],≥ 69900 nM
same,Kd,HLA-B*07:02 [1]; [5],6600 nM
IPPYCTIAPV,Kd,HLA-B*51:01; [8],≥ 30000 nM
same,Kd,HLA-B*35:01; [8],≥ 30400 nM
same,Kd,HLA-B*54:01; [8],90.5 nM
same,Kd,HLA-B*53:01; [8],≥ 69900 nM
same,Kd,HLA-B*07:02 [1]; [8],940 nM
IPYLRNYMVI,Kd,HLA-B*51:01; [5],≥ 25000 nM
same,Kd,HLA-A*33:01; [5],15500 nM
same,Kd,HLA-A*03:01; [5],158 nM
same,Kd,HLA-B*35:01; [5],≥ 43900 nM
same,Kd,HLA-B*54:01; [5],829 nM
same,Kd,HLA-A*31:01; [5],≥ 37000 nM
same,Kd,HLA-A*11:01; [5],1020 nM
same,Kd,HLA-A*68:01; [5],≥ 21400 nM
same,Kd,HLA-A*02:01 [2]; [5],≥ 69400 nM
same,Kd,HLA-A*02:03; [5],≥ 70400 nM
same,Kd,HLA-A*02:02; [5],≥ 70000 nM
same,Kd,HLA-B*53:01; [5],895 nM
same,Kd,HLA-B*07:02 [1]; [5],323 nM
same,Kd,HLA-A*02:06; [5],≥ 69800 nM
same,Kd,HLA-A*68:02; [5],15500 nM
ISIIVLFQR,Kd,HLA-B*51:01; [5],≥ 21000 nM
same,Kd,HLA-A*33:01; [5],252 nM
same,Kd,HLA-A*03:01; [5],689 nM
same,Kd,HLA-B*35:01; [5],≥ 43400 nM
same,Kd,HLA-B*54:01; [5],7680 nM
same,Kd,HLA-A*31:01; [5],1.12 nM
same,Kd,HLA-A*11:01; [5],930 nM
same,Kd,HLA-A*68:01; [5],3.26 nM
same,Kd,HLA-A*02:01 [2]; [5],2400 nM
same,Kd,HLA-A*02:03; [5],9050 nM
same,Kd,HLA-A*02:02; [5],6720 nM
same,Kd,HLA-B*53:01; [5],≥ 21500 nM
same,Kd,HLA-B*07:02 [1]; [5],2220 nM
same,Kd,HLA-A*02:06; [5],9070 nM
same,Kd,HLA-A*68:02; [5],8930 nM
KPNTWCLRCL,Kd,HLA-B*51:01; [6],≥ 69600 nM
same,Kd,HLA-B*35:01; [6],≥ 69900 nM
same,Kd,HLA-B*54:01; [6],≥ 31100 nM
same,Kd,HLA-B*53:01; [6],2440 nM
same,Kd,HLA-B*07:02 [1]; [6],339 nM
KPPISFPLCA,Kd,HLA-B*51:01; [6],9520 nM
same,Kd,HLA-B*35:01; [6],≥ 42500 nM
same,Kd,HLA-B*54:01; [6],3870 nM
same,Kd,HLA-B*53:01; [6],≥ 31500 nM
same,Kd,HLA-B*07:02 [1]; [6],17200 nM
KQYIVATLMK,Kd,HLA-B*51:01; [5],≥ 35000 nM
same,Kd,HLA-A*33:01; [5],1150 nM
same,Kd,HLA-A*03:01; [5],5.6 nM
same,Kd,HLA-B*35:01; [5],18700 nM
same,Kd,HLA-B*54:01; [5],13700 nM
same,Kd,HLA-A*31:01; [5],8.24 nM
same,Kd,HLA-A*11:01; [5],3.78 nM
same,Kd,HLA-A*68:01; [5],1340 nM
same,Kd,HLA-A*02:01 [2]; [5],11200 nM
same,Kd,HLA-A*02:03; [5],9860 nM
same,Kd,HLA-A*02:02; [5],10600 nM
same,Kd,HLA-B*53:01; [5],≥ 69900 nM
same,Kd,HLA-B*07:02 [1]; [5],≥ 69600 nM
same,Kd,HLA-A*02:06; [5],11400 nM
same,Kd,HLA-A*68:02; [5],≥ 49000 nM
LPNTLVFQA,Kd,HLA-B*51:01; [9],4400 nM
same,Kd,HLA-B*35:01; [9],82.8 nM
same,Kd,HLA-B*54:01; [9],8.14 nM
same,Kd,HLA-B*53:01; [9],1020 nM
same,Kd,HLA-B*07:02 [1]; [9],≥ 38300 nM
MPASWVMRI,Kd,HLA-A*69:01,17 nM
same,Kd,HLA-A*02:01 [3],8190 nM
same,Kd,HLA-B*07:02 [4],508 nM
same,Kd,HLA-B*51:01; [6],67.1 nM
same,Kd,HLA-B*35:01; [6],206 nM
same,Kd,HLA-B*54:01; [6],32 nM
same,Kd,HLA-B*53:01; [6],1.24 nM
QPYPQPQPQY,Kd,HLA-B*51:01; [8],10400 nM
same,Kd,HLA-B*35:01; [8],48 nM
same,Kd,HLA-B*54:01; [8],≥ 69900 nM
same,Kd,HLA-B*53:01; [8],1620 nM
same,Kd,HLA-B*07:02 [1]; [8],≥ 69600 nM
SEYDYVIFT,Kd,HLA-B*45:01,11.4 nM
same,Kd,HLA-B*44:03; [6],25.1 nM
same,Kd,HLA-B*44:02; [6],125 nM
same,Kd,HLA-B*40:02; [6],34 nM
same,Kd,HLA-B*40:01; [6],998 nM
same,Kd,HLA-B*18:01; [6],3270 nM
TPNYMKLLVY,Kd,HLA-B*51:01; [5],≥ 28600 nM
same,Kd,HLA-B*35:01; [5],48.1 nM
same,Kd,HLA-B*54:01; [5],14600 nM
same,Kd,HLA-B*53:01; [5],952 nM
same,Kd,HLA-B*07:02 [1]; [5],≥ 47800 nM
VEFLKDAWEI,Kd,HLA-B*45:01,4000 nM
same,Kd,HLA-B*44:03; [6],614 nM
same,Kd,HLA-B*44:02; [6],641 nM
same,Kd,HLA-B*40:02; [6],77.4 nM
same,Kd,HLA-B*40:01; [6],965 nM
same,Kd,HLA-B*18:01; [6],3720 nM
WPNNCGWKIY,Kd,HLA-B*51:01; [5],≥ 69600 nM
same,Kd,HLA-B*35:01; [5],593 nM
same,Kd,HLA-B*54:01; [5],1140 nM
same,Kd,HLA-B*53:01; [5],5570 nM
same,Kd,HLA-B*07:02 [1]; [5],≥ 22800 nM
YDYYRYNLPT,Kd,HLA-B*45:01,15100 nM
same,Kd,HLA-B*44:03; [6],≥ 20900 nM
same,Kd,HLA-B*44:02; [6],≥ 24800 nM
same,Kd,HLA-B*40:02; [6],≥ 36500 nM
same,Kd,HLA-B*40:01; [6],≥ 69600 nM
same,Kd,HLA-B*18:01; [6],≥ 70500 nM
YEGNSPFHPL,Kd,HLA-B*45:01,≥ 42700 nM
same,Kd,HLA-B*44:03; [6],16800 nM
same,Kd,HLA-B*44:02; [6],8100 nM
same,Kd,HLA-B*40:02; [6],12.2 nM
same,Kd,HLA-B*40:01; [6],46.2 nM
same,Kd,HLA-B*18:01; [6],12300 nM
YPTNDIPSLF,Kd,HLA-B*51:01; [5],4270 nM
same,Kd,HLA-B*35:01; [5],8.63 nM
same,Kd,HLA-B*54:01; [5],473 nM
same,Kd,HLA-B*53:01; [5],7.67 nM
same,Kd,HLA-B*07:02 [1]; [5],1970 nM
